Results on 167 variants are retold here after the Human Domainome abundance scans (Beltran et al. 2025).

± gives the uncertainty stated by the source.

The labels stand for the following.
B1: Connector enhancer of kinase suppressor of ras 2, residues 9 to 71; numbered along this chain, Q8WXI2 (parent)
chain: SKWSPSQVVDWMKGLDDCLQQYIKNFEREKISGDQLLRITHQELEDLGVSRIGHQELILEAVD

This data set covers variants of B1. Briefly: abundance fitness (aPCA) (normalised: wild type 0, dead -1); higher = more abundant; growth selection in yeast, the domain comes from the species named. The following applies: Homo sapiens.
As to D46P, the abundance fitness is -0.813 ± 0.076.
With D46K the figure was 0.072 ± 0.035; with D46H, 0.008 ± 0.039.
With D46W the figure was -0.192 ± 0.034.
With D46V the figure was -0.11 ± 0.032.
With D46S, the abundance fitness was -0.037 ± 0.024.
Under V49W stands -0.866 ± 0.052; under W11N, -0.674 ± 0.086; under W11P, -0.854 ± 0.066.
For the variant W11G, the abundance fitness was -0.675 ± 0.04.
Under W11M stands -0.943 ± 0.058.
Under W11Q stands -0.681 ± 0.054; under W11C, -0.834 ± 0.072.
On to V62Q, for which the abundance fitness is -0.789 ± 0.089.
In the case of V62C, the abundance fitness is -0.411 ± 0.047.
In the case of V62W, the abundance fitness is -0.909 ± 0.17.
For V62T, the abundance fitness is -0.58 ± 0.047.
With V62H the figure was -1.04 ± 0.11; with V62R, -0.061 ± 0.028; with S32V, -0.475 ± 0.037.
With S32N the figure was 0.024 ± 0.043; with S32T, 0.022 ± 0.03.
Under S32I stands -0.589 ± 0.086; under S32M, -0.394 ± 0.042.
Turning to S32A, the abundance fitness is -0.077 ± 0.03.
Under S32P stands -0.624 ± 0.053; under S32W, -0.322 ± 0.028.
With S32E, the abundance fitness was -0.341 ± 0.042.
On to D17W, for which the abundance fitness is -0.497 ± 0.045.
In the case of D17P, the abundance fitness is -0.051 ± 0.031.
With D17L the figure was -0.446 ± 0.027.
Under R28N stands -0.067 ± 0.051.
With R28F the figure was -0.453 ± 0.1; with R28K, -0.063 ± 0.033; with R28A, -0.052 ± 0.026.
For R28I, the abundance fitness was -0.099 ± 0.063.
With G53T the figure was 0.042 ± 0.027; with G53K, 0.077 ± 0.037.
With G53E the figure was 0.085 ± 0.039.
As to G53D, the abundance fitness is 0.086 ± 0.042.
Under G53F stands -0.079 ± 0.026; under G53W, -0.151 ± 0.03.
Regarding Q7K, the abundance fitness is -0.227 ± 0.032.
For the variant Q7H, the abundance fitness was -0.301 ± 0.045.
Under Q7W stands -0.803 ± 0.051.
For Q7D, the abundance fitness is -0.07 ± 0.048.
For Q7C, the abundance fitness is -0.574 ± 0.042.
With Q7A the figure was -0.211 ± 0.031; with N25F, -0.078 ± 0.048.
Under N25Y stands -0.036 ± 0.084; under N25A, -0.007 ± 0.033; under N25G, -0.139 ± 0.03.
Under N25S stands -0.05 ± 0.028.
N25Q: the abundance fitness is -0.133 ± 0.033.
Turning to R51F, the abundance fitness was found to be 0.006 ± 0.033.
With R51E the figure was 0.088 ± 0.044.
Turning to R51I, the abundance fitness turned out to be 0.03 ± 0.03.
Regarding R51P, the abundance fitness is -0.021 ± 0.036.
With R51W the figure was -0.115 ± 0.036.
In the case of R51S, the abundance fitness is 0.088 ± 0.027.
Under R51H stands 0.018 ± 0.039; under R51N, 0.063 ± 0.046; under E27R, -0.173 ± 0.023.
Under E27H stands -0.376 ± 0.054.
For the variant E27S, the abundance fitness was -0.258 ± 0.03.
Under E27W stands -0.311 ± 0.034.
Under E27T stands -0.197 ± 0.033.
With E27V the figure was -0.261 ± 0.027; with Q20I, -0.247 ± 0.063.
For the variant Q20P, the abundance fitness is -0.805 ± 0.051.
Q20M: the abundance fitness is -0.17 ± 0.029.
Q20R: the abundance fitness was -0.214 ± 0.024.
In the case of Q20F, the abundance fitness is -0.179 ± 0.039.
Consider I31F, for which the abundance fitness was -0.573 ± 0.077.
For I31W, the abundance fitness is -0.74 ± 0.056.
With I31D the figure was -0.931 ± 0.1; with I31K, -0.886 ± 0.063; with I31V, -0.053 ± 0.027.
For H41L, the abundance fitness was -0.234 ± 0.027.
Under H41K stands 0.029 ± 0.034.
For the variant H41V, the abundance fitness was -0.06 ± 0.03.
Under C18G stands -0.182 ± 0.026; under C18N, -0.132 ± 0.045.
Under C18R stands -0.314 ± 0.032; under K2T, 0.015 ± 0.03; under K2Y, -0.012 ± 0.033.
In the case of K2P, the abundance fitness is -0.167 ± 0.073.
With K2S the figure was -0.003 ± 0.025.
Turning to K2W, the abundance fitness is -0.291 ± 0.079.
Take Q21G: the abundance fitness was -0.032 ± 0.03.
For Q21N, the abundance fitness is -0.4 ± 0.041.
Under Q21K stands -0.204 ± 0.039; under Q21L, -0.275 ± 0.025; under Q21W, -0.933 ± 0.062.
For Q21M, the abundance fitness is -0.102 ± 0.032.
With Q21S the figure was -0.118 ± 0.024; with T40L, -1.07 ± 0.076; with T40A, -0.499 ± 0.034.
With T40P the figure was -0.784 ± 0.05; with D10F, -0.34 ± 0.041; with D10N, -0.087 ± 0.036.
For the variant D10G, the abundance fitness is -0.122 ± 0.035.
With D10P, the abundance fitness is -0.929 ± 0.056.
H54Y: the abundance fitness is -0.863 ± 0.081.
On to H54M, for which the abundance fitness was -0.819 ± 0.052.
With H54W the figure was -1.27 ± 0.17; with H54E, -0.412 ± 0.053; with H54Q, -0.944 ± 0.093.
With H54I the figure was -1.15 ± 0.14; with Y22E, -0.753 ± 0.06.
Under Y22H stands -0.542 ± 0.057; under Y22N, -0.747 ± 0.062.
With Y22T, the abundance fitness is -0.653 ± 0.035.
For the variant Y22L, the abundance fitness is -0.899 ± 0.053.
With Y22I, the abundance fitness was -0.834 ± 0.085.
Turning to Y22W, the abundance fitness was -0.632 ± 0.06.
With Q42W the figure was -0.767 ± 0.047; with R38N, -0.098 ± 0.065; with R38Q, -0.134 ± 0.039.
Under R38H stands -0.061 ± 0.043; under I52D, -0.123 ± 0.04.
Consider I52Y, for which the abundance fitness was -0.067 ± 0.041.
As to I52F, the abundance fitness is -0.071 ± 0.052.
I52N: the abundance fitness was -0.139 ± 0.057.
Under I52T stands 0.017 ± 0.035; under I52M, -0.086 ± 0.04; under I52K, 0.048 ± 0.035.
With L19D the figure was -0.608 ± 0.042.
As for L19A, the abundance fitness was -0.652 ± 0.033.
Under L19N stands -0.593 ± 0.054.
Consider L19V, for which the abundance fitness was -0.112 ± 0.026.
With L19P, the abundance fitness is -0.602 ± 0.044.
Under L19I stands -0.102 ± 0.066; under G48H, -0.813 ± 0.1; under G48E, -0.692 ± 0.055.
With G48A the figure was -0.844 ± 0.053.
As for G48V, the abundance fitness was -1.01 ± 0.064.
With G48K the figure was -0.552 ± 0.058; with G48M, -0.871 ± 0.091; with G48S, -0.66 ± 0.036.
Under G48C stands -0.698 ± 0.055.
Under G48D stands -0.64 ± 0.075; under K30Q, -0.036 ± 0.037.
On to K30F, for which the abundance fitness was -0.324 ± 0.04.
Under K30W stands -0.572 ± 0.063; under K30L, -0.225 ± 0.028; under K30T, -0.419 ± 0.04.
On to L59V, for which the abundance fitness was -0.552 ± 0.03.
With L59T the figure was -0.607 ± 0.038; with L59K, -0.232 ± 0.034; with L59H, -0.657 ± 0.068.
With L59S the figure was -0.652 ± 0.043.
Regarding L59E, the abundance fitness was -0.672 ± 0.041.
For L59W, the abundance fitness was -0.758 ± 0.056.
As to V9I, the abundance fitness was -0.035 ± 0.03.
In the case of V9M, the abundance fitness was -0.159 ± 0.038.
Under V9H stands -0.774 ± 0.051; under V9F, -0.764 ± 0.081; under V9N, -0.562 ± 0.061.
Regarding V9P, the abundance fitness is -0.888 ± 0.073.
With V9G, the abundance fitness is -0.128 ± 0.031.
Under V9S stands -0.207 ± 0.027.
V9Q: the abundance fitness was -0.217 ± 0.044.
With S50N the figure was -0.471 ± 0.34.
For the variant S50A, the abundance fitness is -0.125 ± 0.15.
As to S50M, the abundance fitness was -0.09 ± 0.1.
With S50H the figure was 0.239 ± 0.17.
